Reference: US20160311918A1, “Anti-Ron Monoclonal Antibodies as a Cytotoxic Drug Delivery System for Targeted Cancer Therapy” (TEXAS TECH UNIVERSITY SYSTEM, priority 2013, published 2016)

How the values were obtained:
[1] = Acute toxicity in Balb/c mice; assay type: in vivo, mouse
Procedure: FIGS. 6A to 6C show the toxicity of Zt/g4-DM1 in vivo. Body weight was measured every four days during the period of Zt/g4-DM1 treatment. FIG. 6A: Effect of multiple doses of Zt/g4-DM1 on mouse body weight was determined by administration of Zt/g4-DM1 at 1, 3, 7, 10, 15 mg/kg every four day with a total of 5 injections. Mice were weighed and monitored for a total of 31 days. FIG. 6B: Effect of a single dose of Zt/g4 at 20 mg/kg on mouse body weight was determined using mice bearing HT29, HCT116, or SW620-derived tumors. Body weight was monitored up to 28 days. FIG. 6C: Effect of high doses of Zt/G4-DM1 on mouse body weight was analyzed by tail vein injection at 20, 40 and 60 mg/kg to Balb/c mice. Mice were euthanized at day 21. In all cases, the average body weight of mice before Zt/g4-DM1 injection was 19.8±3.6 grams (5 mice per group) and set as 100%;
In vivo toxicity studies: Acute toxicity with maximum tolerated dose was determined in Balb/C mice (four mice per dose) by a single tail vein injection of Zt/g4-DM1 at 20, 40, and 60 mg/kg body weight. Toxicity associated with different therapeutic doses was evaluated in athymic nude mice bearing HT29 tumor xenograft (five mice per dose). […] Toxicity was assessed by observing mouse behavior, weight loss, and survival.
Toxic effect of Zt/g4-DM1 on mice. Three studies using two different types of mice were performed to study Zt/g4-DM1 on animal behavior and body weight. The first study addressed the impact of multi-doses of Zt/g4-DM1. Athymic nude mice were injected five times with 1, 3, […], 7, 10, 15 mg/kg of Zt/g4-DM1 and monitored every four days for a total period of 31 days. […] The second study observed the effect of a single dose of Zt/g4-DM1 at 20 mg/kg in nude mice bearing tumors derived from HT29, HCT116, and SW620 cells. […] The third study involved a single-dose injection of Zt/g4-DM1 at 20, 40, and 60 mg/kg in Balb/c mice monitored for 24 days (FIG. 6C). […] Also, a moderate reduction of about 6% body weight was observed within the first four days after 60 mg/kg Zt/g4-DM1 injection. Although the average body weight from this group of mice slowly recovered during the observation period, the overall average remained lower than that of control mice with a 19% difference compared to that of control mice at day 24. Thus, Zt/g4-DM1 at the multiple-dose regimen appeared to be well tolerated.

cell surface RON = cell surface RON (Homo sapiens, UniProt Q04912); test: Kinetic reduction of cell surface RON (endocytosis) in CRC cells; assay type: cell-based; set-up: We selected CRC cell lines HT29, HCT116, and SW620 expressing variable levels of RON as the cellular model; host or cells: HCT116, HT29, SW620; details: for time required to induce 50% RON reduction (internalization efficacy): 37° C.
Procedure: FIGS. 2A to 2F show the binding and induction of RON endocytosis by Zt/g4-DM1 in CRC cells. FIG. 2A: Levels of RON expression by different CRC cell lines: Five CRC cells lines (1×10^6 cells/ml) in PBS were incubated at 4° C. with 5 μg/ml Zt/g4 for 60 min. […] matched mouse IgG was used as the control. Cell surface RON was quantitatively determined by the immunofluorescence assay using QIFKIT® reagents from DAKO (Carpentaria, Calif.) as detailed in Materials and Methods. FIG. 2B: Binding of Zt/g4-DM1 to human CRC cell lines: HCT116, HT29, and SW620 cells (1×10^5 cells) were incubated with 5 μg Zt/g4-DM1 or Zt/c1-DM1. Free Zt/g4 and Zt/c1 was used as the control. Fluorescence intensity from individual samples was determined by flow cytometric analysis. FIG. 2C: Kinetic reduction of cell surface RON: HCT116, HT29, and SW620 cells (1×10^6 cells per dish) were treated at 37° C. with 5 μg/ml of Zt/g4-DM1, collected at different time points, washed with acidic buffer to eliminate cell surface bound IgG, and then incubated with 1 μg/mL of anti-RON mAb 2F2 Immunofluorescence was analyzed by flow cytometer using FITC-coupled anti-mouse IgG Immunofluorescence from cells treated with Zt/g4-DM1 or Zt/c1-DM1 at 4° C. was set as 100%. Internalization efficiency was calculated as the time required to achieve 50% cell surface RON reduction. FIG. 2D: RON reduction analysis by Western blotting: Cellular proteins (50 μg per lane) from cells treated with 5 μg/ml of Zt/g4 or Zt/g4-DM1 for various times were separated in an 8% SDS-PAGE under reduced conditions and transferred to the membrane. RON was detected by rabbit anti-RON antibody followed enhanced chemiluminescent reagents. The same membrane was reprobed for actin as the loading control. FIG. 2E: Quantitative measurement of RON expression: The intensity of individual RON-β chains was determined by densitometric analysis. Internalization efficiency was calculated as the time required to achieve a 50% RON reduction. FIG. 2F: Immunofluorescent localization of cytoplasmic RON: HT29 cells (1×10^5 cells per chamber) were treated at 4° C. or 37° C. with 5 μg/ml of Zt/g4-DM1 or Zt/c1-DM1 for 6 h followed by FITC-coupled anti-mouse IgG. After cell fixation, immunofluorescence was detected using the BK70 Olympus microscope equipped with a fluorescence apparatus. LAMP1 was used as a marker for protein cytoplasmic localization. DAPI was used to stain nuclear DNA;
Zt/g4-DM1-induced RON endocytosis was studied, which is a process essential for delivering DM1 into CRC cells. Zt/g4-DM1 causes a progressive reduction of cell surface RON in a time-dependent manner in all three CRC cell lines tested (FIG. 2C). Less than 20% of RON remained on the cell surface after a 48 hour treatment. […] Thus, Zt/g4-DM1 is more efficient and potent in induction of RON endocytosis.

RON-β chain (mature RON) = target: T1, RON-β chain (mature RON) (Homo sapiens, UniProt Q04912); test: Western blot of RON expression in CRC cells; assay type: cell-based; details: 36 h after treatment, 5 μg/ml
T1 construct: We selected CRC cell lines LoVo, DLD1, HT29, HCT116, and SW620 expressing variable levels of RON as the cellular model; host or cells: HCT116, HT29, SW620
T1 sequence (Q04912 310-1400 limits assumed): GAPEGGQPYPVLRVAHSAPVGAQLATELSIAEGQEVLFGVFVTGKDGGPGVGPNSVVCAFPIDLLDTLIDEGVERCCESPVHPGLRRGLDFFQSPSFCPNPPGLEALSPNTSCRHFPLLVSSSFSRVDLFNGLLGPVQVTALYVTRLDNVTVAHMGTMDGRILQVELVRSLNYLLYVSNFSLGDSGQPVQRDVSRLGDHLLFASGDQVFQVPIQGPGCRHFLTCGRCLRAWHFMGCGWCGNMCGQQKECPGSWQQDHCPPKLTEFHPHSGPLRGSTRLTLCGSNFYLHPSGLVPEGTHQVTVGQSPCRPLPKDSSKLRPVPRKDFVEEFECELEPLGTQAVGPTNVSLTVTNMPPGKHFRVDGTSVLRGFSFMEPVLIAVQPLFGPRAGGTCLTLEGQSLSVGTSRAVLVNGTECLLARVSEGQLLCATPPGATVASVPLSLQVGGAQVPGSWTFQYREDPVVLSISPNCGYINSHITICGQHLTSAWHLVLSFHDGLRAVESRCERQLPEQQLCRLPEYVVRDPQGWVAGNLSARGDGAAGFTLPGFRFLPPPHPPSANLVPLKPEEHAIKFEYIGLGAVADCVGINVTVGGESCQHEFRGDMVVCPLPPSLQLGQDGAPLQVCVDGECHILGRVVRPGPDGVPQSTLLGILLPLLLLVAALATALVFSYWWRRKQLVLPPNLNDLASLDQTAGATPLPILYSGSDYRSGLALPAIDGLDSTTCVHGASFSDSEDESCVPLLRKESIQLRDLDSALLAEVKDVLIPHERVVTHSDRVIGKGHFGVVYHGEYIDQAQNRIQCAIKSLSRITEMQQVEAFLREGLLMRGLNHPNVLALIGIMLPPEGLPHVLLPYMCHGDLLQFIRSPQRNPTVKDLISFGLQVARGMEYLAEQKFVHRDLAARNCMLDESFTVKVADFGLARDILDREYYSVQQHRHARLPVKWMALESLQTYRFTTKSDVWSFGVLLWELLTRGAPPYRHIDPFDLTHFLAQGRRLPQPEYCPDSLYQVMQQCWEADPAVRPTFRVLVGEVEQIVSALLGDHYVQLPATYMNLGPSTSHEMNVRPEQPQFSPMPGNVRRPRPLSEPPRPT
T1 sequence (Q04912 25-304 limits assumed): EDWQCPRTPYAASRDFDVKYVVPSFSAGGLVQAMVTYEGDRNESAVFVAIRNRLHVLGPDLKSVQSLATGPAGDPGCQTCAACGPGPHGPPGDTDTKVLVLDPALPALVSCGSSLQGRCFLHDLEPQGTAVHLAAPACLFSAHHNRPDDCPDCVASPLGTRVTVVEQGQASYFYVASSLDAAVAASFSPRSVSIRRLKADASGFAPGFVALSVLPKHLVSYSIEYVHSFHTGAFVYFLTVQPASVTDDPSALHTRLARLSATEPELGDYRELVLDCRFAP

Chain of cell surface RON (Q04912 310-1400 limits assumed): as the sequence (Q04912 310-1400 limits assumed) above
Chain of cell surface RON (Q04912 25-304 limits assumed): as the sequence (Q04912 25-304 limits assumed) above

B1: Zt/g4-DM1: anti-RON mouse mAb Zt/g4 conjugated to maytansinoid DM1 via non-reducible thioether linkage (SMCC), DAR about 4:1 (conjugate)
VH: EVQLQQSGAELVKPGASVKLSCTTSGFNIIDTYIHWVNQKPDQGLEWIGRIDPADGNRKSDPKFQVKATITVDTSSNTAYLQLSSLTSGDTAVYYCARGYGNLNAMDSWGQGTSVTVSS
VL: DIQMNQSPSSLSASLGDTITITCHASQNINVWLNWYQQKPGNIPKLLIYKASNLHTGVPSRFSGSGSGTGFTLTISSLQPEDIATYYCQQGQSYPLTFGGGTKLEIK
- average reduction in mouse body weight ([1]; 60 mg/kg): 12%
- toxic effect on mouse behavior or body weight ([1]; doses up to 40 mg/kg): no toxic effect on mouse behavior or body weight
- distress ([1]; single dose 60 mg/kg, Balb/c mice): Moderate distress
- body weight difference compared to control mice ([1]; single dose 60 mg/kg, day 24): 19%
- reduction of body weight ([1]; single dose 60 mg/kg, within the first four days): about 6%
- time required to induce 50% RON reduction (internalization efficacy) (cell surface RON; HCT116, 5 μg/ml): 12.26 h
- time required to induce 50% RON reduction (internalization efficacy) (cell surface RON; HT29, 5 μg/ml): 11.02 h
- time required to induce 50% RON reduction (internalization efficacy) (cell surface RON; SW620, 5 μg/ml): 12.30 h
- RON remaining on the cell surface (cell surface RON; after 48 hour treatment, 5 μg/ml, three CRC cell lines): Less than 20%
- cell surface RON internalized (cell surface RON; within 48 h): > 80%
- RON-β chain detected (RON-β chain (mature RON)): Less than 20%
